Results taken from paper PMC4364678, “Biosynthesis of the Diterpenoid Lycosantalonol via Nerylneryl Diphosphate in Solanum lycopersicum” (PLoS ONE, 2015).

Tests used:
purified protein [1] = substrate: C=C(C)CCO[P@@](=O)(O)OP(=O)(O)O; experiment: purified protein; conditions: 5-80 μM 14C-IPP at 150 μM zzFPP; labelled compound
purified protein [2] = substrate: CC(C)=CCC/C(C)=C\CC/C(C)=C\COP(=O)(O)OP(=O)(O)O; experiment: purified protein; type: biochemical, Solanum lycopersicum; conditions: 10-80 μM zzFPP at 50 μM 14C-IPP

B1: CPT2 (Solanum lycopersicum) (protein)
chain: MSDRGLSKISCSLSLQTEKLRYDNDDNDDLELHEELIPKHIALIMDGNRRWAKAKGLEVYEGHKLIIPKLKEICDISSKLGIQVITAFAFSTENWKRSKEEVDFLMQLFEEFFNEFLRFGVRVSVIGCKSNLPMTLQKCIALTEETTKGNKGLHLVIALNYGGYYDILQATKSIVNKAMNGLLDVEDINKNLFEQELESKCPNPDLLIRTGGEQRVSNFLLWQLAYTEFYFTNTLFPDFGEKDLKKAILNFQQRHRRFGGHTY
notes: N-terminal putative transit peptide (51 residues, 153 nt) deleted; vector pEXP5-CT/TOPO; E. coli BL21 (DE3)
B1 showed a Km (purified protein [1]) of 3.8 ± 0.3 µM, a kcat (purified protein [1]) of 0.0026 s⁻¹ and a kcat/Km (purified protein [1]) of 680 M⁻¹ s⁻¹. For the same protein, the Km (purified protein [2]) was 22.9 ± 1.1 µM, the kcat (purified protein [2]) was 0.0026 ± 0.0001 s⁻¹ and the kcat/Km (purified protein [2]) was 110 ± 10 M⁻¹ s⁻¹.
